Source: patent publication US20250270332A1 (ANTLERA THERAPEUTICS, published 2025)
Substitutions are numbered along the chain they refer to.

Target: T1, FZD4 recombinant extracellular domain, Fc fusion (FZD-Fc) (UniProt Q9ULV1 37-180)
T1 construct: extracellular domain; also called FZD4 ECD; not shown: Fc part of the FZD-Fc protein
T1 sequence (looked up): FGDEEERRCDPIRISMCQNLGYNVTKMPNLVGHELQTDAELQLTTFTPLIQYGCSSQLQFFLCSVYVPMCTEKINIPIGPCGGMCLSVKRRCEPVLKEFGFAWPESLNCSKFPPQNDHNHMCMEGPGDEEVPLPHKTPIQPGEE
Assay: BLI (Octet), FZD-Fc captured on AHQ sensors, agonist in solution; apparent affinity

B1: FZD4 Agonist ANT21 (bispecific antibody)
heavy 1: EVQLVESGGGLVQPGGSLRLSCAASGFNFSSSSIHWVRQAPGKGLEWVASISSSYGYTYYADSVKGRFTISADTSKNTAYLQMNSLRAEDTAVYYCARGGSGVSHYGSVYYSWWALDYWGQGTLVTVSSGGGGSDIQMTQSPSSLSASVGDRVTITCRASQSVSSAVAWYQQKPGKAPKLLIYSASSLYSGVPSRFSGSRSGTDFTLTISSLQPEDFATYYCQQYWAYYSPITFGQGTKVEIKGGGGSGGGGSEPKTSDKTHTCPPCPAPELLGGPSVFLFPPKPKDTLMISRTPEVTCVVVAVSHEDPEVKFNWYVDGVEVHNAKTKPREEQYGSTYRVVSVLTVLHQDWLNGKEYKCKVSNKALPAPIEKTISKAKGQPREPMVFDLPPSREEMTKNQVSLWCMVKGFYPSDIAVEWESNGQPENNYKTTPPVLDSDGSFFLYSKLTVDKSRWQQGNVFSCSVMHEALHNHYTQKSLSLSPGKGGGSGGGSGGGSGGGSGSTGEVQLVESGGGLVQPGGSLRLSCAASGFTLSSYSMHWVRQAPGKGLEWVAYISSYYGYTYYADSVKGRFTISADTSKNTAYLQMNSLRAEDTAVYYCARPAPGHWGFDYWGQGTLVTVSSASTKGPSVFPLAPSSKSTSGGTAALGCLVKDYFPEPVTVSWNSGALTSGVHTFPAVLQSSGLYSLSSVVTVPSSSLGTQTYICNVNHKPSNTKVDKKVEPKSCDKTHT
heavy 2: EVQLVESGGGLVQPGGSLRLSCAASGFNFSSSSIHWVRQAPGKGLEWVASISSSYGYTYYADSVKGRFTISADTSKNTAYLQMNSLRAEDTAVYYCARSWAMDYWGQGTLVTVSSGGGGSDIQMTQSPSSLSASVGDRVTITCRASQSVSSAVAWYQQKPGKAPKLLIYSASSLYSGVPSRFSGSRSGTDFTLTISSLQPEDFATYYCQQSSYSLITFGQGTKVEIKGGGGSGGGGSEPKSSDKTHTCPPCPAPELLGGPSVFLFPPKPKDTLMISRTPEVTCVVVAVSHEDPEVKFNWYVDGVEVHNAKTKPREEQYGSTYRVVSVLTVLHQDWLNGKEYKCKVSNKALPAPIEKTISKAKGQPREPQVYTLPPIRELMTSNQVSLSCAVKGFYPSDIAVEWESNGQPENNYKTTPPVLDSDGSFFLVSKLTVDKSRWQQGNVFSCSVMHEALHNHYTQKSLSLSPGKGGGSGGGSGGGSGGGSGSTGEVQLVESGGGLVQPGGSLRLSCAASGFTLSSYSMHWVRQAPGKGLEWVAYISSYYGYTYYADSVKGRFTISADTSKNTAYLQMNSLRAEDTAVYYCARPAPGHWGFDYWGQGTLVTVSSASTKGPSVFPLAPSSKSTSGGTAALGCLVKDYFPEPVTVSWNSGALTSGVHTFPAVLQSSGLYSLSSVVTVPSSSLGTQTYICNVNHKPSNTKVDKKVEPKSCDKTHT
light: DIQMTQSPSSLSASVGDRVTITCRASQSVSSAVAWYQQKPGKAPKLLIYSASSLYSGVPSRFSGSRSGTDFTLTISSLQPEDFATYYCQQWYYAPITFGQGTKVEIKRTVAAPSVFIFPPSDEQLKSGTASVVCLLNNFYPREAKVQWKVDNALQSGNSQESVTEQDSKDSTYSLSSTLTLSKADYEKHKVYACEVTHQGLSSPVTKSFNRGEC
notes: Diabody-Fc-Fab format
Kd: 2.2 nM

B2: FZD4 Agonist ANT39 (bispecific antibody, human IgG1, kappa, N297G)
heavy 1: EVQLVESGGGLVQPGGSLRLSCAASGFDFTAYAMHWVRQAPGKGLEWVASIYPSGGYTAYADSVKGRFTISADTSKNTAYLQMNSLRAEDTAVYYCARRSYYFALDYWGQGTLVTVSSGGGGSDIQMTQSPSSLSASVGDRVTITCRASQSVSSAVAWYQQKPGKAPKLLIYSASSLYSGVPSRFSGSRSGTDFTLTISSLQPEDFATYYCQQYWAYYSPITFGQGTKVEIKGGGGSGGGGSEPKTSDKTHTCPPCPAPELLGGPSVFLFPPKPKDTLMISRTPEVTCVVVAVSHEDPEVKFNWYVDGVEVHNAKTKPREEQYGSTYRVVSVLTVLHQDWLNGKEYKCKVSNKALPAPIEKTISKAKGQPREPMVFDLPPSREEMTKNQVSLWCMVKGFYPSDIAVEWESNGQPENNYKTTPPVLDSDGSFFLYSKLTVDKSRWQQGNVFSCSVMHEALHNHYTQKSLSLSPGKGGGSGGGSGGGSGGGSGSTGEVQLVESGGGLVQPGGSLRLSCAASGFTLSSYSMHWVRQAPGKGLEWVAYISSYDSITDYADSVKGRFTISADTSKNTAYLQMNSLRAEDTAVYYCARPAVGHMAFDYWGQGTLVTVSSASTKGPSVFPLAPSSKSTSGGTAALGCLVKDYFPEPVTVSWNSGALTSGVHTFPAVLQSSGLYSLSSVVTVPSSSLGTQTYICNVNHKPSNTKVDKKVEPKSCDKTHT
heavy 2: EVQLVESGGGLVQPGGSLRLSCAASGFDFSSSSIHWVRQAPGKGLEWVASISSSYGYTYYADSVKGRFTISADTSKNTAYLQMNSLRAEDTAVYYCARSWAMDYWGQGTLVTVSSGGGGSDIQMTQSPSSLSASVGDRVTITCRASQSVSSAVAWYQQKPGKAPKLLIYSASDLYSGVPSRFSGSRSGTDFTLTISSLQPEDFATYYCQQYAGAGLITFGQGTKVEIKGGGGSGGGGSEPKSSDKTHTCPPCPAPELLGGPSVFLFPPKPKDTLMISRTPEVTCVVVAVSHEDPEVKFNWYVDGVEVHNAKTKPREEQYGSTYRVVSVLTVLHQDWLNGKEYKCKVSNKALPAPIEKTISKAKGQPREPQVYTLPPIRELMTSNQVSLSCAVKGFYPSDIAVEWESNGQPENNYKTTPPVLDSDGSFFLVSKLTVDKSRWQQGNVFSCSVMHEALHNHYTQKSLSLSPGKGGGSGGGSGGGSGGGSGSTGEVQLVESGGGLVQPGGSLRLSCAASGFTLSSYSMHWVRQAPGKGLEWVAYISSYDSITDYADSVKGRFTISADTSKNTAYLQMNSLRAEDTAVYYCARPAVGHMAFDYWGQGTLVTVSSASTKGPSVFPLAPSSKSTSGGTAALGCLVKDYFPEPVTVSWNSGALTSGVHTFPAVLQSSGLYSLSSVVTVPSSSLGTQTYICNVNHKPSNTKVDKKVEPKSCDKTHT
light: B1 light with Y93N
notes: Diabody-Fc-Fab format, DANG Fc
Kd: 0.3 nM
